Legend:
PD-L1 expressed on cells = PD-L1 expressed on cells (UniProt Q9NZQ7 19-290, limits assumed); assay: cell-based or functional assay
[1] = target: T1, human PD-L1-Fc (R&D Systems, cat#156-B7) (human, UniProt Q9NZQ7 19-239); assay: ELISA, plate coated with human PD-L1-Fc, detection with anti-human IgG F(ab')2-HRP
T1 construct: Bought reagent; both are treated here as the same molecule; also called PD-L1 ligand; not shown: Fc part of the bought fusion protein
T1 sequence (Q9NZQ7 19-239 limits assumed): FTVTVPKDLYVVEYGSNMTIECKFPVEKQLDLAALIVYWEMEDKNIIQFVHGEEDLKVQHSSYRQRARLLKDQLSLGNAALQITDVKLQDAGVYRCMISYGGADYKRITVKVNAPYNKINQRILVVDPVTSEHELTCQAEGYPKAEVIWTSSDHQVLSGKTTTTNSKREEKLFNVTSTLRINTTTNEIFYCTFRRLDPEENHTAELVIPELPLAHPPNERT

PD-L1 expressed on cells, sequence (Q9NZQ7 19-290 limits assumed): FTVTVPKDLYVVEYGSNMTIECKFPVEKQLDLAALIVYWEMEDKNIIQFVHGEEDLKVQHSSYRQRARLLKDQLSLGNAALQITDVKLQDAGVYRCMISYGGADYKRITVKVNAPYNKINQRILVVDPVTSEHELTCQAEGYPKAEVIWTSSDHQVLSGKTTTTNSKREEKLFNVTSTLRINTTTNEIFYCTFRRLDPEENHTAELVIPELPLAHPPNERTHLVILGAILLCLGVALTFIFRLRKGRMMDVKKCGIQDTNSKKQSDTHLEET

EC50, PD-1/NFAT Reporter Jurkat T cell assay with PD-L1 positive T cell activator CHO cells (PD-L1 expressed on cells): 1.92 nM
EC50 [1]: 0.47 nM
B1: parent PD-L1 antibody (as IgG1-EN homodimer) (antibody, V domains shown)
VH: QVQLVQSGAEVKKPGSSVKVSCKASGGTFSSYAISWVRQAPGQGLEWMGGIIPIFGTANYAQKFQGRVTITADKSTSTAYMELSSLRSEDTAVYYCARSPDYSPYYYYGMDVWGQGTTVTVSS
VL: QSVLTQPPSASGTPGQRVTISCSGSSSNIGSNTVNWYQQLPGTAPKLLIYGNSNRPSGVPDRFSGSKSGTSASLAISGLQSEDEADYYCQSYDSSLSGSVFGGGIKLTVL
notes: IgG1-EN homodimer; parent of the anti-PD-L1 arm of the bispecific antibodies; also called parental PD-L1 Ab; parental anti-PD-L1 antibody

— patent US20190010232A1 (Eli Lilly, published 2019)
